Data published in article PMC10924461, “Structure and ligand binding in the putative anti-microbial peptide transporter protein, YejA” (Microbiology, 2024).

Assays:
[1] = biological target: T1, YejA, periplasmic solute-binding protein of the YejABEF ABC transporter from E. coli (E. coli K12, UniProt P33913 20-604); test: thermal shift assay (SYPRO orange); 0.5 mg ml^-1 (7.3 µM) YejA, 5x SYPRO orange, 25 µl, 25-96 °C in 1 °C/30 s steps; synthetic peptides added; a shift greater than 3 °C taken as significant; conditions: both partners purified
T1 construct: YejA, E. coli K12, residues 1-585 (Gln1-Glu585) of the mature protein, without the signal peptide; numbers count on: the mature protein; also called EcYejA; recombinant YejA; source: E. coli BL21 (DE3) with pBKA101, purified (HisTrap, HRV 3C cleavage, S200 SEC); not shown: His6, C-terminal, cleaved
T1 sequence (looked up): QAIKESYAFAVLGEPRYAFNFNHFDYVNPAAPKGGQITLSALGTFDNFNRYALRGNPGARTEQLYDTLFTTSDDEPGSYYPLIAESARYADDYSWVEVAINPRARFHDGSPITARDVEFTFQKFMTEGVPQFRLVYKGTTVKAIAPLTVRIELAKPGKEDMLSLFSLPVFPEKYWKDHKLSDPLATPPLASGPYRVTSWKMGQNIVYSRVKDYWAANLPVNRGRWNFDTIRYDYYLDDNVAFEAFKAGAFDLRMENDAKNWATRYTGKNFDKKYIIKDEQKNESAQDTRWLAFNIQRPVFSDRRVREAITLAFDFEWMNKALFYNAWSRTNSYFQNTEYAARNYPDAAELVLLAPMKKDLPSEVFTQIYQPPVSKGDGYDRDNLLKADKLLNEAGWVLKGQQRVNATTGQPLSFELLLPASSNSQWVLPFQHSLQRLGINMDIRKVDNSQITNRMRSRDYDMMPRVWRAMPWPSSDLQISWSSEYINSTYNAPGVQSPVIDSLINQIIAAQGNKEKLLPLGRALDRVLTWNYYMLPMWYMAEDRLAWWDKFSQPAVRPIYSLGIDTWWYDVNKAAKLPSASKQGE

[2] = biological target: T1, YejA, periplasmic solute-binding …; test: as above; conditions: both partners purified; remark: listed apart in the source

B1: LGEPRYAFNFN (peptide)
peptide: LGEPRYAFNFN
notes: YejA, E. coli, residues 12-22 of the N-terminal segment; numbers count on: the mature protein; also called undecapeptide; 11-mer; source: co-purified and co-crystallised with recombinant YejA (self-derived); synthetic peptide
**Q.** What does the source list for B1?
**A.** Tm of YejA with 0.005 mg ml^-1 peptide (60.8 °C without peptide) [1]: 62.6 °C; Tm of YejA with 0.05 mg ml^-1 peptide (60.8 °C without peptide) [1]: 67.5 °C; melting temp. change with 0.75 mg ml^-1 (0.56 mM) peptide [2]: 13 °C

B2: LGEPAYAFNFN (peptide)
peptide: LGEPAYAFNFN
notes: numbers count on: the peptide (Leu1 = residue 12 of mature YejA); source: synthetic peptide
**Q.** B2 was tested. Which “melting temp. change with 2.5 mg ml^-1 (2.01 mM) peptide” value [2] did it give?
**A.** Its value is 7 °C.

B3: LGEPRWAFNFN (peptide)
peptide: LGEPRWAFNFN
notes: numbers count on: the peptide (Leu1 = residue 12 of mature YejA); also called Trp-containing peptide; Trp6 containing peptide; source: synthetic peptide
**Q.** How did the “melting temp. change with 2.5 mg ml^-1 (1.85 mM) peptide” value [2] turn out when B3 was run?
**A.** Its value is 22 °C.

B4: EPRYAFNFN (peptide)
peptide: EPRYAFNFN
notes: YejA, E. coli, stretch of the N-terminal segment; numbers count on: the mature protein; source: synthetic peptide
**Q.** For B4, which “melting temp. change with 2.5 mg ml^-1 (2.16 mM) peptide” value [2] is on record?
**A.** The value was 8 °C.

B5: GEPRYAFNFN (peptide)
peptide: GEPRYAFNFN
notes: as for B4
**Q.** Which “melting temp. change with 2.5 mg ml^-1 (2.06 mM) peptide” value [2] does the source give for B5 here?
**A.** Its value is 14 °C.

B6: LGEPRYAFN (peptide)
peptide: LGEPRYAFN
notes: as for B4
**Q.** How did the “melting temp. change with 1.25 mg ml^-1 (1.17 mM) peptide” value [2] turn out when B6 was run?
**A.** The value was 17 °C.

B7: LGEPRYAFNF (peptide)
peptide: LGEPRYAFNF
notes: as for B4
**Q.** For B7, which “melting temp. change with 2.5 mg ml^-1 (2.06 mM) peptide” value [2] is on record?
**A.** Its value is 20 °C.

B8: VLGEPRYAFNF (peptide)
peptide: VLGEPRYAFNF
notes: YejA, E. coli, stretch of the N-terminal segment; numbers count on: the mature protein; source: co-purified with recombinant YejA (self-derived); synthetic peptide
**Q.** How did the “melting temp. change with 2.5 mg ml^-1 (1.9 mM) peptide” value [2] turn out when B8 was run?
**A.** The value was 22 °C.

B9: VLGEPRYAFNFN (peptide)
peptide: VLGEPRYAFNFN
notes: YejA, E. coli, stretch of the N-terminal segment; numbers count on: the mature protein; also called dodecapeptide; 12-mer; source: co-purified with recombinant YejA (self-derived); synthetic peptide
**Q.** For B9, which “melting temp. change with 2.5 mg ml^-1 (1.75 mM) peptide” value [2] is on record?
**A.** The value was 21 °C.

B10: FAVLGEPRYAFN (peptide)
peptide: FAVLGEPRYAFN
notes: as for B8
**Q.** For B10, which “melting temp. change with 5 mg ml^-1 (3.61 mM) peptide” value [2] is on record?
**A.** Its value is 19 °C.

B11: VLGEPRYAFNFNHFD (peptide)
peptide: VLGEPRYAFNFNHFD
notes: YejA, E. coli, stretch of the N-terminal segment; numbers count on: the mature protein; also called 15-mer; source: co-purified with recombinant YejA (self-derived); synthetic peptide
**Q.** With B11 as the protein, how does the “melting temp. change with 2.5 mg ml^-1 (1.37 mM) peptide” value [2] read?
**A.** The value was 26 °C.
